{"source": "paper PMC3742261", "about": "“Integrated Self-Assembly of the Mms6 Magnetosome Protein to Form an Iron-Responsive Structure” (International Journal of Molecular Sciences, 2013)", "molecules": {"B1": {"name": "C21Mms6 (synthetic peptide of the C-terminal 21 amino acids of Mms6) (peptide, UniProt Q2W8R5 113-133, looked up)", "peptide": "KSRDIESAQSDEEVELRDALA", "notes": "Mms6, Magnetospirillum magneticum AMB-1, C-terminal 21 amino acids; also called synthetic 21 amino acid peptide C-terminal domain; source: synthetic peptide, ordered from GenScript"}}, "key": {"[1]": {"biological_target": "Mms6 (wild type, mature form, His-tagged) (Magnetospirillum magneticum strain AMB-1) (UniProt Q2W8R5)", "assay": "SEC; Superose 12 column, protein loaded at 0.2 mg/mL, BC100 buffer (20 mM Tris, 100 mM KCl, pH 7.5), 4 °C; percent of total protein in the void volume by peak integration"}, "[2]": {"biological_target": "Mms6 I117G (Magnetospirillum magneticum strain AMB-1) (UniProt Q2W8R5)", "assay": "SEC; Superose 12 column, protein loaded at 0.2 mg/mL, BC100 buffer (20 mM Tris, 100 mM KCl, pH 7.5), 4 °C; percent of total protein in the void volume by peak integration"}, "[3]": {"biological_target": "Mms6 L84A, L86A, L88A, L90A, L92A (GL repeat replaced with a GA repeat) (Magnetospirillum magneticum strain AMB-1) (UniProt Q2W8R5)", "assay": "SEC; Superose 12 column, protein loaded at 1 mg/mL, 4 °C; percent of total protein in the void volume by peak integration"}, "[4]": {"biological_target": "Mms6 L84A, L86A, L88A, L90A, L92A (GL repeat replaced with a GA repeat) (Magnetospirillum magneticum strain AMB-1) (UniProt Q2W8R5)", "assay": "SEC; Superose 12 column, protein loaded at 0.2 mg/mL, BC100 buffer (20 mM Tris, 100 mM KCl, pH 7.5), 4 °C; percent of total protein in the void volume by peak integration"}, "[5]": {"biological_target": "Mms6 L128G (Magnetospirillum magneticum strain AMB-1) (UniProt Q2W8R5)", "assay": "SEC; Superose 12 column, protein loaded at 0.2 mg/mL, BC100 buffer (20 mM Tris, 100 mM KCl, pH 7.5), 4 °C; percent of total protein in the void volume by peak integration"}, "[6]": {"biological_target": "Mms6 L132G (Magnetospirillum magneticum strain AMB-1) (UniProt Q2W8R5)", "assay": "SEC; Superose 12 column, protein loaded at 0.2 mg/mL, BC100 buffer (20 mM Tris, 100 mM KCl, pH 7.5), 4 °C; percent of total protein in the void volume by peak integration"}, "[7]": {"biological_target": "Mms6 W79A (Magnetospirillum magneticum strain AMB-1) (UniProt Q2W8R5)", "assay": "SEC; Superose 12 column, protein loaded at 0.2 mg/mL, BC100 buffer (20 mM Tris, 100 mM KCl, pH 7.5), 4 °C; percent of total protein in the void volume by peak integration"}, "[8]": {"biological_target": "Mms6 W79F (Magnetospirillum magneticum strain AMB-1) (UniProt Q2W8R5)", "assay": "SEC; Superose 12 column, protein loaded at 0.2 mg/mL, BC100 buffer (20 mM Tris, 100 mM KCl, pH 7.5), 4 °C; percent of total protein in the void volume by peak integration"}, "[9]": {"biological_target": "Mms6 W79F,W95F (Magnetospirillum magneticum strain AMB-1) (UniProt Q2W8R5)", "assay": "SEC; Superose 12 column, protein loaded at 0.2 mg/mL, BC100 buffer (20 mM Tris, 100 mM KCl, pH 7.5), 4 °C; percent of total protein in the void volume by peak integration"}, "[10]": {"biological_target": "Mms6 W95A (Magnetospirillum magneticum strain AMB-1) (UniProt Q2W8R5)", "assay": "SEC; Superose 12 column, protein loaded at 0.2 mg/mL, BC100 buffer (20 mM Tris, 100 mM KCl, pH 7.5), 4 °C; percent of total protein in the void volume by peak integration"}, "[11]": {"biological_target": "Mms6 W95F (Magnetospirillum magneticum strain AMB-1) (UniProt Q2W8R5)", "assay": "SEC; Superose 12 column, protein loaded at 0.2 mg/mL, BC100 buffer (20 mM Tris, 100 mM KCl, pH 7.5), 4 °C; percent of total protein in the void volume by peak integration"}, "[12]": {"biological_target": "the molecule itself", "assay": "SEC; Superdex Peptide 10/300 column, 80 micrograms C21Mms6, 10 mM Pi, pH 7.5; size from a standard curve"}, "[13]": {"biological_target": "the molecule itself", "assay": "SEC; Superdex Peptide 10/300 column, 80 micrograms C21Mms6, 20 mM Tris, pH 7.5; size from a standard curve"}, "[14]": {"biological_target": "the molecule itself", "assay": "SEC; Superdex Peptide 10/300 column, 80 micrograms C21Mms6, 50 mM Formate or Citrate, pH 3; size from a standard curve"}, "[15]": {"biological_target": "the molecule itself", "assay": "SEC; Superdex Peptide 10/300 column, 80 micrograms C21Mms6, 50 mM Formate or Citrate, pH 3 with FeCl3:protein = 8:1; size from a standard curve"}, "[16]": {"biological_target": "the molecule itself", "assay": "SEC; Superdex Peptide 10/300 column, 80 micrograms C21Mms6, 20 mM Tris, 1.5 or 3 M KCl, pH 7.5; size from a standard curve"}, "[17]": {"biological_target": "the molecule itself", "assay": "SEC; Superdex Peptide 10/300 column, 80 micrograms C21Mms6, 10 mM Pi, 100 mM KCl, pH 7.5; size from a standard curve"}, "[18]": {"biological_target": "the molecule itself", "assay": "SEC; Superdex Peptide 10/300 column, 80 micrograms C21Mms6, 20 mM Tris, 100 mM KCl, pH 7.5; size from a standard curve"}}, "note": "Where “and” joins values, the source holds several entries; their conditions need not be identical. Equal values may be shown once.", "data": [{"molecule": "Mms6 (wild type, mature form, His-tagged) (from UniProt Q2W8R5 1-133) (natural protein)", "values": [{"measurement": "% protein in Vo", "setting": "[1]", "value": 100, "unit": "%"}]}, {"molecule": "Mms6 I117G (from UniProt Q2W8R5 1-133) (natural protein)", "values": [{"measurement": "% protein in Vo", "setting": "[2]", "value": "94% and 95%"}]}, {"molecule": "Mms6 L84A, L86A, L88A, L90A, L92A (GL repeat replaced with a GA repeat) (from UniProt Q2W8R5 1-133) (natural protein)", "values": [{"measurement": "% protein in Vo", "setting": "[3]", "value": 55, "unit": "%"}, {"measurement": "% protein in Vo", "setting": "[4]", "value": "46% and 54%"}]}, {"molecule": "Mms6 L128G (from UniProt Q2W8R5 1-133) (natural protein)", "values": [{"measurement": "% protein in Vo", "setting": "[5]", "value": "63% and 86%"}]}, {"molecule": "Mms6 L132G (from UniProt Q2W8R5 1-133) (natural protein)", "values": [{"measurement": "% protein in Vo", "setting": "[6]", "value": "29% and 37%"}]}, {"molecule": "Mms6 W79A (from UniProt Q2W8R5 1-133) (natural protein)", "values": [{"measurement": "% protein in Vo", "setting": "[7]", "value": "79% and 83%"}]}, {"molecule": "Mms6 W79F (from UniProt Q2W8R5 1-133) (natural protein)", "values": [{"measurement": "% protein in Vo", "setting": "[8]", "value": 96, "unit": "%"}]}, {"molecule": "Mms6 W79F,W95F (from UniProt Q2W8R5 1-133) (natural protein)", "values": [{"measurement": "% protein in Vo", "setting": "[9]", "value": "75% and 82%"}]}, {"molecule": "Mms6 W95A (from UniProt Q2W8R5 1-133) (natural protein)", "values": [{"measurement": "% protein in Vo", "setting": "[10]", "value": "49% and 70%"}]}, {"molecule": "Mms6 W95F (from UniProt Q2W8R5 1-133) (natural protein)", "values": [{"measurement": "% protein in Vo", "setting": "[11]", "value": 97, "unit": "%"}]}, {"molecule": "B1", "values": [{"measurement": "stoichiometry N", "setting": "[12]", "value": 7.3, "unit": "C21Mms6 units/multimer"}, {"measurement": "stoichiometry N", "setting": "[13]", "value": 2, "unit": "C21Mms6 units/multimer"}, {"measurement": "stoichiometry N", "setting": "[14]", "value": 2, "unit": "C21Mms6 units/multimer"}, {"measurement": "stoichiometry N", "setting": "[15]", "value": 2.1, "unit": "C21Mms6 units/multimer"}, {"measurement": "stoichiometry N", "setting": "[16]", "value": 1.8, "unit": "C21Mms6 units/multimer"}, {"measurement": "stoichiometry N", "setting": "[17]", "value": 4, "unit": "C21Mms6 units/multimer"}, {"measurement": "stoichiometry N", "setting": "[18]", "value": 4.1, "unit": "C21Mms6 units/multimer"}]}]}
